Assay results: patent publication US20220041711A1 (NGM BIOPHARMACEUTICALS, published 2022)
Read-outs that look alike come from different tables or passages of the source.

Key:
[1] = target: T1, mouse LAIR-1-PILRβ chimeric receptor on GFP reporter cells (mouse); assay: cell-based or functional assay
[2] = target: T1, mouse LAIR-1-PILRβ chimeric receptor on …; assay: cell-based or functional assay; remark: listed apart in the source
[3] = target: T2, mouse LAIR-1-hFc (Sino Biological) (mouse, UniProt Q8BG84 22-144, limits assumed); assay: ELISA blocking: plate coated with 2 µg/mL mouse collagen type 1, antibody pre-incubated with 2 µg/mL mouse LAIR-1-hFc, HRP anti-human Fc, OD650 (left panel)
T2 construct: Bought; also called mouse LAIR-1-Fc; not shown: human Fc (hFc)
T2 sequence: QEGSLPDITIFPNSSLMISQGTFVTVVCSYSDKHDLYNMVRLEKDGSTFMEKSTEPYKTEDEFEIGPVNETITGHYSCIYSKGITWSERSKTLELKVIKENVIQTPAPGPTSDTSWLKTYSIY

[4] = target: T2, mouse LAIR-1-hFc (Sino Biological); assay: flow cytometry blocking: antibody pre-incubated with 2 µg/mL mouse LAIR-1-hFc, added to HEK-293T cells transfected with mouse MARCO, Alexa Fluor 647 anti-human Fc, MFI (right panel)
human LAIR-1-ECD = target: T3, human LAIR-1-ECD (human, UniProt Q6GTX8 22-165); assay: SPR (Biacore) as in Example 2
T3 construct: Recombinant, expressed in mammalian cells; also called extracellular region of human LAIR-1
T3 chain: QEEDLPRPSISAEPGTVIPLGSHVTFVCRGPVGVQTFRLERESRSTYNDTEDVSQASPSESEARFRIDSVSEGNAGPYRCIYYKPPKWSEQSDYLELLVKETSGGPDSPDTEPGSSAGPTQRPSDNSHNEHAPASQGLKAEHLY

cyno LAIR-1-ECD = target: T4, cyno LAIR-1-ECD (cynomolgus monkey); assay: SPR (Biacore) as in Example 2
T4 construct: Recombinant, expressed in mammalian cells; also called extracellular region of cyno LAIR-1
T4 chain: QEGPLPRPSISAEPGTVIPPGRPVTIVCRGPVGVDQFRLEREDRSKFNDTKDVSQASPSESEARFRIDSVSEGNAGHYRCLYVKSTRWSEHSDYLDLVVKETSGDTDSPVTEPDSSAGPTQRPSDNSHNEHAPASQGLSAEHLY

[5] = target: T5, human LAIR-1-CD3ζ chimeric receptor on NFAT-GFP reporter cells (human, UniProt P20963 31-164, limits assumed); assay: cell-based or functional assay
[6] = target: T5, human LAIR-1-CD3ζ chimeric receptor on …; assay: cell-based or functional assay; remark: listed apart in the source
[7] = target: T5, human LAIR-1-CD3ζ chimeric receptor on …; assay: cell-based or functional assay; remark: listed apart in the source
[8] = target: T6, cyno LAIR-1-CD3ζ chimeric receptor on NFAT-GFP reporter cells (cynomolgus monkey; human); assay: cell-based or functional assay
[9] = target: T5, human LAIR-1-CD3ζ chimeric receptor on …; assay: cell-based or functional assay; remark: listed apart in the source
[10] = target: T6, cyno LAIR-1-CD3ζ chimeric receptor on …; assay: cell-based or functional assay; remark: listed apart in the source
[11] = target: T5, human LAIR-1-CD3ζ chimeric receptor on …; assay: cell-based or functional assay; remark: listed apart in the source
[12] = target: T6, cyno LAIR-1-CD3ζ chimeric receptor on …; assay: cell-based or functional assay; remark: listed apart in the source
[13] = target: T7, human LAIR-1, endogenous on human cells (human, UniProt Q6GTX8 22-287); assay: flow cytometry of human PBMCs (9 donors) with Alexa Fluor 488-labelled ch47H1
T7 construct: Native receptor of primary human cells and of the THP1 line; isoform on the cells not determined; also called LAIR-1 on PBMC subsets, THP1 cells, monocyte-derived dendritic cells, macrophages and T-cells
T7 chain: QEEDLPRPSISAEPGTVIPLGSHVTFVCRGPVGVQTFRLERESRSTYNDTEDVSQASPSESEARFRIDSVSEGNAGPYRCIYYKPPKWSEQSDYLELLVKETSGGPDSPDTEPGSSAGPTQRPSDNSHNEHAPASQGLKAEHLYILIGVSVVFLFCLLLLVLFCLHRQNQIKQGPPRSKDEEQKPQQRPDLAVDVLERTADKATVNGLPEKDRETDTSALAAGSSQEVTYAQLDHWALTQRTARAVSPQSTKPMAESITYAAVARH

[14] = target: T5, human LAIR-1-CD3ζ chimeric receptor on …; assay: flow cytometry on human LAIR-1 reporter cells, PE anti-human Fc secondary, MFI (panel Human LAIR1 Cells)
[15] = target: T6, cyno LAIR-1-CD3ζ chimeric receptor on …; assay: flow cytometry on cyno LAIR-1 reporter cells, PE anti-human Fc secondary, MFI (panel Cynomolgus Monkey LAIR1 Cells)
[16] = target: T8, human LAIR-1b (alternative isoform of human LAIR-1) on transfected 293T cells (human, UniProt Q6GTX8 22-287); assay: flow cytometry on cells expressing human LAIR-1b, PE anti-human Fc secondary, MFI (panel Human LAIR1 (Truncated) Cells)
T8 chain: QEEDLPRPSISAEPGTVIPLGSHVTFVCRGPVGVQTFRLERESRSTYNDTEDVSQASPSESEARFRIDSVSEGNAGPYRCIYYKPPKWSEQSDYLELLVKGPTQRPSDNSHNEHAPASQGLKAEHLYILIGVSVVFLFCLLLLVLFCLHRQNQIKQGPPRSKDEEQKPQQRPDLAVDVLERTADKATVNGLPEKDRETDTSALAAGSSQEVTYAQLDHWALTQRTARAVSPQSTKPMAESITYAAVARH

human LAIR-1-Fc = target: T9, human LAIR-1-Fc (human, UniProt Q6GTX8 22-165); assay: ELISA blocking: plate coated with 5 µg/mL human collagen type 1, antibody titrated, 1 µg/mL biotinylated human LAIR-1-Fc, streptavidin-HRP, OD650
T9 construct: also called biotinylated human LAIR-1-Fc; not shown: a Fc region
T9 chain: T3 chain

B1: anti-mouse LAIR-1 antibody 43H2 (antibody, V domains shown)
VH: EVQLVESGGGLVQPGRSLKVSCAASGFTFSNYGIHWIRQAPTKGLEWVASISPSGRSTYFRDSVKGRFTISRDNAKNTLYLQLDSLRSEDTATYYCATGINYSSFDYWGQGVMVTVSS
VL: DIVMTQSPTSMSISVGDRVTMNCKASQNVGSHVDWYQQKTGQSPKLLISTASNRYTGVPDRFTGSGSGTDFTFTINNMQTEDLAVYYCMQSNSYPPTFGGGTKLELK
notes: Raised in rats
- IC50 (read off the curve): % GFP+ mouse LAIR-1 reporter cells on coated human MARCO-his [1]: ~0.1 nM
- IC50 (read off the curve): % GFP+ mouse LAIR-1 reporter cells on coated mouse collagen type 1 [1]: ~0.04 nM
- IC50 (read off the curve): % GFP+ mouse LAIR-1 reporter cells on coated mouse collagen type 4 [1]: ~0.02 nM
- IC50 (read off the curve): % GFP+ mouse LAIR-1 reporter cells co-cultured with bEnd.3 cells [2]: ~0.02 nM
- IC50 (read off the curve) [3]: ~80 nM
- IC50 (read off the curve) [4]: ~20 nM

B2: anti-LAIR-1 antibody ch47H1 (antibody, V domains shown)
VH: EVQLVETGGGLVQPKGSLKLSCAASGFTFNINAMNWVRQAPGKGLEWVARIRTKNNNYATFYADSVKDRFTISRDDSQSMLYLQMNNLKTDDTAMYYCVRDRAGFFAYWGQGTPVTVSA
VL: DIQMTQSPASQSASLGESVTITCLASQTIGTWLGWYRQKPGKSPQLLIYAATSLADGVPSRFSGSGSGTKFSFKISSLQAEDFVIYYCQQLYSTPLTFGSGTKLEIK
notes: The prefix 'ch' is not defined; detected with anti-human Fc secondary antibody
- Kd (human LAIR-1-ECD): 0.34 nM
- koff (human LAIR-1-ECD): 0.00051 s⁻¹
- kon (human LAIR-1-ECD): 1.5e+06 M⁻¹ s⁻¹
- Kd (cyno LAIR-1-ECD): 4.6 nM
- koff (cyno LAIR-1-ECD): 0.001 s⁻¹
- kon (cyno LAIR-1-ECD): 220000 M⁻¹ s⁻¹
- IC50 (read off the curve): % GFP+ human LAIR-1 reporter cells on coated MARCO-his [5]: ~0.07 nM
- IC50 (read off the curve): % GFP+ human LAIR-1 reporter cells on coated collagen 1 [5]: ~0.09 nM
- IC50 (read off the curve): % GFP+ human LAIR-1 reporter cells on coated collagen 4 [5]: ~0.06 nM
- IC50 (read off the curve): % GFP+ human LAIR-1 reporter cells on coated C1 complex [6]: ~0.02 nM
- IC50 (read off the curve): % GFP+ human LAIR-1 reporter cells on coated COLEC12 [6]: ~0.05 nM
- IC50 (read off the curve): % GFP+ human LAIR-1 reporter cells on coated MARCO-his [6]: ~0.03 nM
- IC50 (read off the curve): % GFP+ human LAIR-1 reporter cells on coated MBL [6]: ~0.06 nM
- IC50 (read off the curve): % GFP+ human LAIR-1 reporter cells on coated SP-D [6]: ~0.03 nM
- IC50 (read off the curve): % GFP+ human LAIR-1 reporter cells on coated collagen 1 [6]: ~0.02 nM
- IC50 (read off the curve): % GFP+ human LAIR-1 reporter cells on coated collagen 4 [6]: ~0.02 nM
- IC50 (read off the curve): % GFP+ human LAIR-1 reporter cells on coated MARCO-his [7]: ~0.02 nM
- IC50 (read off the curve): % GFP+ human LAIR-1 reporter cells on coated collagen 1 [7]: ~0.02 nM
- IC50 (read off the curve): % GFP+ human LAIR-1 reporter cells on coated collagen 4 [7]: ~0.02 nM
- IC50 (read off the curve): % GFP+ cyno LAIR-1 reporter cells on coated MARCO-his [8]: ~0.1 nM
- IC50 (read off the curve): % GFP+ cyno LAIR-1 reporter cells on coated collagen 1 [8]: ~0.2 nM
- IC50 (read off the curve): % GFP+ cyno LAIR-1 reporter cells on coated collagen 4 [8]: ~0.2 nM
- IC50 (read off the curve): % GFP+ human LAIR-1 reporter cells co-cultured with bEnd.3 cells [9]: ~0.02 nM
- IC50 (read off the curve): % GFP+ cyno LAIR-1 reporter cells co-cultured with bEnd.3 cells [10]: ~0.1 nM
- IC50 (read off the curve): % GFP+ human LAIR-1 reporter cells on polymerized collagen matrix [11]: ~0.03 nM
- IC50 (read off the curve): % GFP+ cyno LAIR-1 reporter cells on polymerized collagen matrix [12]: ~0.2 nM
- binding result [13]: binds
- EC50 (read off the curve) [14]: ~0.2 nM
- EC50 (read off the curve) [15]: ~0.7 nM
- EC50 (read off the curve) [16]: ~1 nM
- IC50 (read off the curve) (human LAIR-1-Fc): ~3 nM
